Publication PMC7850899, “Nutrient transceptors physically interact with the yeast S6/protein kinase B homolog, Sch9, a TOR kinase target” (Biochemical Journal, 2021)

Key:
[1] = target: T1, Gap1 peptide 222-236 with V232 replaced by E (substitution scan) (S. cerevisiae, UniProt P19145 222-236, 232V replaced by E); experiment: peptide or protein array; PEPperCHIP substitution scan of …, 300 peptides in triplicate; 100 or 500 µg/ml GST-Sch9 or GST, 16 h at 4°C; detected with anti-GST DyLight680; conditions: both partners purified
T1 construct: source: synthesised on the PEPperCHIP substitution peptide microarray (PEPperPRINT)
T1 peptide (looked up): GVKGYGEAEFEFSFI

[2] = target: T2, Gap1 peptide 222-236 with S234 replaced by E (substitution scan) (S. cerevisiae, UniProt P19145 222-236, S234E); experiment: as above; conditions: both partners purified
T2 construct: source: synthesised on the PEPperCHIP substitution peptide microarray (PEPperPRINT)
T2 peptide (looked up): GVKGYGEAEFVFEFI

B1: GST-tagged Sch9 (GST-Sch9) (enzyme, S. cerevisiae, UniProt P11792 1-824, looked up)
chain: MMNFFTSKSSNQDTGFSSQHQHPNGQNNGNNNSSTAGNDNGYPCKLVSSGPCASSNNGALFTNFTLQTATPTTAISQDLYAMGTTGITSENALFQMKSMNNGISSVNNNNSNTPTIITTSQEETNAGNVHGDTGGNSLQNSEDDNFSSSSTTKCLLSSTSSLSINQREAAAAAYGPDTDIPRGKLEVTIIEARDLVTRSKDSQPYVVCTFESSEFISNGPESLGAINNNNNNNNNNQHNQNQHINNNNENTNPDAASQHHNNNSGWNGSQLPSIKEHLKKKPLYTHRSSSQLDQLNSCSSVTDPSKRSSNSSSGSSNGPKNDSSHPIWHHKTTFDVLGSHSELDISVYDAAHDHMFLGQVRLYPMIHNLAHASQHQWHSLKPRVIDEVVSGDILIKWTYKQTKKRHYGPQDFEVLRLLGKGTFGQVYQVKKKDTQRIYAMKVLSKKVIVKKNEIAHTIGERNILVTTASKSSPFIVGLKFSFQTPTDLYLVTDYMSGGELFWHLQKEGRFSEDRAKFYIAELVLALEHLHDNDIVYRDLKPENILLDANGNIALCDFGLSKADLKDRTNTFCGTTEYLAPELLLDETGYTKMVDFWSLGVLIFEMCCGWSPFFAENNQKMYQKIAFGKVKFPRDVLSQEGRSFVKGLLNRNPKHRLGAIDDGRELRAHPFFADIDWEALKQKKIPPPFKPHLVSETDTSNFDPEFTTASTSYMNKHQPMMTATPLSPAMQAKFAGFTFVDESAIDEHVNNNRKFLQNSYFMEPGSFIPGNPNLPPDEDVIDDDGDEDINDGFNQEKNMNNSHSQMDFDGDQHMDDEFVSGRFEI
notes: Sch9 protein kinase of yeast, expressed from pGEX-Sch9 (pGEX-4T-1-Sch9); Plasmid from J. Bergsma; also called GST-Sch9p; source: purified from E. coli (peptide microarrays); not shown: GST, N-terminal, kept
In the case of B1, the “fold change of spot intensity against the wild type peptide” value [1] is reported as 3 fold and the “fold change of spot intensity against the wild type peptide” value [2] is reported as > 5 fold.
